target: T1, FcγRIa (human, UniProt P12314 16-292); assay: SPR (Biacore); He Ab relative to HeCon Ab = 100
T1 construct: extracellular domain; also called FcgRI; 1a
Experimental: Analysis of interaction between objective antibody and the FcγR was carried out using Biacore T100 (GE Healthcare). HBS-EP+ (GE Healthcare) was used as the running buffer, and the measurement temperature was set to 25° C. Chips produced by immobilizing the antigen peptide by the amine coupling method to a Series S Sencor Chip CM5 (GE Healthcare), or alternatively, chips produced by allowing preliminarily biotinylated antigen peptides to interact with and immobilize onto a Series S Sensor Chip SA (certified) (GE Healthcare) were used. Antibodies of interest were captured onto an antigen peptide-immobilized chip, and allowed to interact to each FcγR diluted with running buffer. To regenerate and repeatedly use the chip, the antibodies captured on the chip were washed off by reacting 10 mM glycine-HCl, pH 1.5.

T1 sequence (P12314 16-292): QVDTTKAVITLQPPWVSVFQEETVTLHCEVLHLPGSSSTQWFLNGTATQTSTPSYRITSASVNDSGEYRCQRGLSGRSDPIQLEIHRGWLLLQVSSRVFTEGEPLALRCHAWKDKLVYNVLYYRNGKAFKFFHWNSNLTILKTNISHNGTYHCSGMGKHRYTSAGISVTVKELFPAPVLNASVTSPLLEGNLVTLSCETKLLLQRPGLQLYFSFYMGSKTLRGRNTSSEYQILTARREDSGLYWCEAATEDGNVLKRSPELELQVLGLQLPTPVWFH

| He/Con_1a | Binder |
| --- | --- |
| 102 % of control | GpH7-A5/GpH7-B3 variant E269_18N/GpL16-k0 (antibody, human IgG1, kappa, also called He Ab E269_18N) heavy 1: not shown heavy 2: not shown light: DIVMTQSPLSLPVTPGEPASISCQASESLVHSNRNTYLHWYLQKPGQSPQLLIYKVSNRFSGVPDRFSGSGSGTDFTLKISRVEAEDVGVYYCSQNTHVPPTFGQGTKVEIERTVAAPSVFIFPPSDEQLKSGTASVVCLLNNFYPREAKVQWKVDNALQSGNSQESVTEQDSKDSTYSLSSTLTLSKADYEKHKVYACEVTHQGLSSPVTKSFNRGEC |
| 105 % of control | GpH7-A5/GpH7-B3 variant E333_03V/GpL16-k0 (antibody, human IgG1, kappa, also called He Ab E333_03V) heavy 1: not shown heavy 2: not shown light: DIVMTQSPLSLPVTPGEPASISCQASESLVHSNRNTYLHWYLQKPGQSPQLLIYKVSNRFSGVPDRFSGSGSGTDFTLKISRVEAEDVGVYYCSQNTHVPPTFGQGTKVEIERTVAAPSVFIFPPSDEQLKSGTASVVCLLNNFYPREAKVQWKVDNALQSGNSQESVTEQDSKDSTYSLSSTLTLSKADYEKHKVYACEVTHQGLSSPVTKSFNRGEC |
| 103 % of control | GpH7-A5/GpH7-B3 variant E333_02A/GpL16-k0 (antibody, human IgG1, kappa, also called He Ab E333_02A) heavy 1: not shown heavy 2: not shown light: DIVMTQSPLSLPVTPGEPASISCQASESLVHSNRNTYLHWYLQKPGQSPQLLIYKVSNRFSGVPDRFSGSGSGTDFTLKISRVEAEDVGVYYCSQNTHVPPTFGQGTKVEIERTVAAPSVFIFPPSDEQLKSGTASVVCLLNNFYPREAKVQWKVDNALQSGNSQESVTEQDSKDSTYSLSSTLTLSKADYEKHKVYACEVTHQGLSSPVTKSFNRGEC |
| 102 % of control | GpH7-A5/GpH7-B3 variant E333_14T/GpL16-k0 (antibody, human IgG1, kappa, also called He Ab E333_14T) heavy 1: not shown heavy 2: not shown light: DIVMTQSPLSLPVTPGEPASISCQASESLVHSNRNTYLHWYLQKPGQSPQLLIYKVSNRFSGVPDRFSGSGSGTDFTLKISRVEAEDVGVYYCSQNTHVPPTFGQGTKVEIERTVAAPSVFIFPPSDEQLKSGTASVVCLLNNFYPREAKVQWKVDNALQSGNSQESVTEQDSKDSTYSLSSTLTLSKADYEKHKVYACEVTHQGLSSPVTKSFNRGEC |
| 103 % of control | GpH7-A5/GpH7-B3 variant E333_13S/GpL16-k0 (antibody, human IgG1, kappa, also called He Ab E333_13S) heavy 1: not shown heavy 2: not shown light: DIVMTQSPLSLPVTPGEPASISCQASESLVHSNRNTYLHWYLQKPGQSPQLLIYKVSNRFSGVPDRFSGSGSGTDFTLKISRVEAEDVGVYYCSQNTHVPPTFGQGTKVEIERTVAAPSVFIFPPSDEQLKSGTASVVCLLNNFYPREAKVQWKVDNALQSGNSQESVTEQDSKDSTYSLSSTLTLSKADYEKHKVYACEVTHQGLSSPVTKSFNRGEC |
| 104 % of control | GpH7-A5/GpH7-B3 variant E333_09D/GpL16-k0 (antibody, human IgG1, kappa, also called He Ab E333_09D) heavy 1: not shown heavy 2: not shown light: DIVMTQSPLSLPVTPGEPASISCQASESLVHSNRNTYLHWYLQKPGQSPQLLIYKVSNRFSGVPDRFSGSGSGTDFTLKISRVEAEDVGVYYCSQNTHVPPTFGQGTKVEIERTVAAPSVFIFPPSDEQLKSGTASVVCLLNNFYPREAKVQWKVDNALQSGNSQESVTEQDSKDSTYSLSSTLTLSKADYEKHKVYACEVTHQGLSSPVTKSFNRGEC |
| 102 % of control | GpH7-A5/GpH7-B3 variant E333_08L/GpL16-k0 (antibody, human IgG1, kappa, also called He Ab E333_08L) heavy 1: not shown heavy 2: not shown light: DIVMTQSPLSLPVTPGEPASISCQASESLVHSNRNTYLHWYLQKPGQSPQLLIYKVSNRFSGVPDRFSGSGSGTDFTLKISRVEAEDVGVYYCSQNTHVPPTFGQGTKVEIERTVAAPSVFIFPPSDEQLKSGTASVVCLLNNFYPREAKVQWKVDNALQSGNSQESVTEQDSKDSTYSLSSTLTLSKADYEKHKVYACEVTHQGLSSPVTKSFNRGEC |
| 102 % of control | GpH7-A5/GpH7-B3 variant E333_12R/GpL16-k0 (antibody, human IgG1, kappa, also called He Ab E333_12R) heavy 1: not shown heavy 2: not shown light: DIVMTQSPLSLPVTPGEPASISCQASESLVHSNRNTYLHWYLQKPGQSPQLLIYKVSNRFSGVPDRFSGSGSGTDFTLKISRVEAEDVGVYYCSQNTHVPPTFGQGTKVEIERTVAAPSVFIFPPSDEQLKSGTASVVCLLNNFYPREAKVQWKVDNALQSGNSQESVTEQDSKDSTYSLSSTLTLSKADYEKHKVYACEVTHQGLSSPVTKSFNRGEC |
| 102 % of control | GpH7-A5/GpH7-B3 variant E333_11K/GpL16-k0 (antibody, human IgG1, kappa, also called He Ab E333_11K) heavy 1: not shown heavy 2: not shown light: DIVMTQSPLSLPVTPGEPASISCQASESLVHSNRNTYLHWYLQKPGQSPQLLIYKVSNRFSGVPDRFSGSGSGTDFTLKISRVEAEDVGVYYCSQNTHVPPTFGQGTKVEIERTVAAPSVFIFPPSDEQLKSGTASVVCLLNNFYPREAKVQWKVDNALQSGNSQESVTEQDSKDSTYSLSSTLTLSKADYEKHKVYACEVTHQGLSSPVTKSFNRGEC |
| 102 % of control | GpH7-A5/GpH7-B3 variant E333_07I/GpL16-k0 (antibody, human IgG1, kappa, also called He Ab E333_07I) heavy 1: not shown heavy 2: not shown light: DIVMTQSPLSLPVTPGEPASISCQASESLVHSNRNTYLHWYLQKPGQSPQLLIYKVSNRFSGVPDRFSGSGSGTDFTLKISRVEAEDVGVYYCSQNTHVPPTFGQGTKVEIERTVAAPSVFIFPPSDEQLKSGTASVVCLLNNFYPREAKVQWKVDNALQSGNSQESVTEQDSKDSTYSLSSTLTLSKADYEKHKVYACEVTHQGLSSPVTKSFNRGEC |
| 105 % of control | GpH7-A5/GpH7-B3 variant E269_19Q/GpL16-k0 (antibody, human IgG1, kappa, also called He Ab E269_19Q) heavy 1: not shown heavy 2: not shown light: DIVMTQSPLSLPVTPGEPASISCQASESLVHSNRNTYLHWYLQKPGQSPQLLIYKVSNRFSGVPDRFSGSGSGTDFTLKISRVEAEDVGVYYCSQNTHVPPTFGQGTKVEIERTVAAPSVFIFPPSDEQLKSGTASVVCLLNNFYPREAKVQWKVDNALQSGNSQESVTEQDSKDSTYSLSSTLTLSKADYEKHKVYACEVTHQGLSSPVTKSFNRGEC |
| 102 % of control | GpH7-A5/GpH7-B3 variant E333_06M/GpL16-k0 (antibody, human IgG1, kappa, also called He Ab E333_06M) heavy 1: not shown heavy 2: not shown light: DIVMTQSPLSLPVTPGEPASISCQASESLVHSNRNTYLHWYLQKPGQSPQLLIYKVSNRFSGVPDRFSGSGSGTDFTLKISRVEAEDVGVYYCSQNTHVPPTFGQGTKVEIERTVAAPSVFIFPPSDEQLKSGTASVVCLLNNFYPREAKVQWKVDNALQSGNSQESVTEQDSKDSTYSLSSTLTLSKADYEKHKVYACEVTHQGLSSPVTKSFNRGEC |
| 102 % of control | GpH7-A5/GpH7-B3 variant E333_04F/GpL16-k0 (antibody, human IgG1, kappa, also called He Ab E333_04F) heavy 1: not shown heavy 2: not shown light: DIVMTQSPLSLPVTPGEPASISCQASESLVHSNRNTYLHWYLQKPGQSPQLLIYKVSNRFSGVPDRFSGSGSGTDFTLKISRVEAEDVGVYYCSQNTHVPPTFGQGTKVEIERTVAAPSVFIFPPSDEQLKSGTASVVCLLNNFYPREAKVQWKVDNALQSGNSQESVTEQDSKDSTYSLSSTLTLSKADYEKHKVYACEVTHQGLSSPVTKSFNRGEC |
| 103 % of control | GpH7-A5/GpH7-B3 variant E333_01G/GpL16-k0 (antibody, human IgG1, kappa, also called He Ab E333_01G) heavy 1: not shown heavy 2: not shown light: DIVMTQSPLSLPVTPGEPASISCQASESLVHSNRNTYLHWYLQKPGQSPQLLIYKVSNRFSGVPDRFSGSGSGTDFTLKISRVEAEDVGVYYCSQNTHVPPTFGQGTKVEIERTVAAPSVFIFPPSDEQLKSGTASVVCLLNNFYPREAKVQWKVDNALQSGNSQESVTEQDSKDSTYSLSSTLTLSKADYEKHKVYACEVTHQGLSSPVTKSFNRGEC |
| 105 % of control | GpH7-A5/GpH7-B3 variant E269_20W/GpL16-k0 (antibody, human IgG1, kappa, also called He Ab E269_20W) heavy 1: not shown heavy 2: not shown light: DIVMTQSPLSLPVTPGEPASISCQASESLVHSNRNTYLHWYLQKPGQSPQLLIYKVSNRFSGVPDRFSGSGSGTDFTLKISRVEAEDVGVYYCSQNTHVPPTFGQGTKVEIERTVAAPSVFIFPPSDEQLKSGTASVVCLLNNFYPREAKVQWKVDNALQSGNSQESVTEQDSKDSTYSLSSTLTLSKADYEKHKVYACEVTHQGLSSPVTKSFNRGEC |
| 102 % of control | GpH7-A5/GpH7-B3 variant E333_05P/GpL16-k0 (antibody, human IgG1, kappa, also called He Ab E333_05P) heavy 1: not shown heavy 2: not shown light: DIVMTQSPLSLPVTPGEPASISCQASESLVHSNRNTYLHWYLQKPGQSPQLLIYKVSNRFSGVPDRFSGSGSGTDFTLKISRVEAEDVGVYYCSQNTHVPPTFGQGTKVEIERTVAAPSVFIFPPSDEQLKSGTASVVCLLNNFYPREAKVQWKVDNALQSGNSQESVTEQDSKDSTYSLSSTLTLSKADYEKHKVYACEVTHQGLSSPVTKSFNRGEC |

Reference: patent US20150344570A1 (published 2015)
